Source: patent US20240368668A1, “SUBSTRATES AND BIOMARKERS OF ADAMTS7” (The Broad Institute, Inc., priority 2021, published 2024)
Square brackets hold non-standard residues; d marks the D form. Ends that are not written are not given here.

molecular target: T1, mouse ADAMTS7 (Mus musculus, UniProt Q68SA9); assay: TMT10 TAILS N-terminomics, SMC2 experiment (process replicates, trypsin/AspN digest); type: cell-based; settings: SMC2_TAILS HC; log fold change of N-terminal peptide, Ad-mADAMTS7 WT over Luc
T1 construct: Full-length mouse Adamts7 1-1857 (Uniprot Q68SA9, WT or E373Q catalytic mutant); expressed in transfected cells; host or cells: Human Coronary Artery Smooth Muscle Cells (HCA-SMC, Lonza), adenovirus 50 MOI
T1 sequence (Q68SA9 221-1657): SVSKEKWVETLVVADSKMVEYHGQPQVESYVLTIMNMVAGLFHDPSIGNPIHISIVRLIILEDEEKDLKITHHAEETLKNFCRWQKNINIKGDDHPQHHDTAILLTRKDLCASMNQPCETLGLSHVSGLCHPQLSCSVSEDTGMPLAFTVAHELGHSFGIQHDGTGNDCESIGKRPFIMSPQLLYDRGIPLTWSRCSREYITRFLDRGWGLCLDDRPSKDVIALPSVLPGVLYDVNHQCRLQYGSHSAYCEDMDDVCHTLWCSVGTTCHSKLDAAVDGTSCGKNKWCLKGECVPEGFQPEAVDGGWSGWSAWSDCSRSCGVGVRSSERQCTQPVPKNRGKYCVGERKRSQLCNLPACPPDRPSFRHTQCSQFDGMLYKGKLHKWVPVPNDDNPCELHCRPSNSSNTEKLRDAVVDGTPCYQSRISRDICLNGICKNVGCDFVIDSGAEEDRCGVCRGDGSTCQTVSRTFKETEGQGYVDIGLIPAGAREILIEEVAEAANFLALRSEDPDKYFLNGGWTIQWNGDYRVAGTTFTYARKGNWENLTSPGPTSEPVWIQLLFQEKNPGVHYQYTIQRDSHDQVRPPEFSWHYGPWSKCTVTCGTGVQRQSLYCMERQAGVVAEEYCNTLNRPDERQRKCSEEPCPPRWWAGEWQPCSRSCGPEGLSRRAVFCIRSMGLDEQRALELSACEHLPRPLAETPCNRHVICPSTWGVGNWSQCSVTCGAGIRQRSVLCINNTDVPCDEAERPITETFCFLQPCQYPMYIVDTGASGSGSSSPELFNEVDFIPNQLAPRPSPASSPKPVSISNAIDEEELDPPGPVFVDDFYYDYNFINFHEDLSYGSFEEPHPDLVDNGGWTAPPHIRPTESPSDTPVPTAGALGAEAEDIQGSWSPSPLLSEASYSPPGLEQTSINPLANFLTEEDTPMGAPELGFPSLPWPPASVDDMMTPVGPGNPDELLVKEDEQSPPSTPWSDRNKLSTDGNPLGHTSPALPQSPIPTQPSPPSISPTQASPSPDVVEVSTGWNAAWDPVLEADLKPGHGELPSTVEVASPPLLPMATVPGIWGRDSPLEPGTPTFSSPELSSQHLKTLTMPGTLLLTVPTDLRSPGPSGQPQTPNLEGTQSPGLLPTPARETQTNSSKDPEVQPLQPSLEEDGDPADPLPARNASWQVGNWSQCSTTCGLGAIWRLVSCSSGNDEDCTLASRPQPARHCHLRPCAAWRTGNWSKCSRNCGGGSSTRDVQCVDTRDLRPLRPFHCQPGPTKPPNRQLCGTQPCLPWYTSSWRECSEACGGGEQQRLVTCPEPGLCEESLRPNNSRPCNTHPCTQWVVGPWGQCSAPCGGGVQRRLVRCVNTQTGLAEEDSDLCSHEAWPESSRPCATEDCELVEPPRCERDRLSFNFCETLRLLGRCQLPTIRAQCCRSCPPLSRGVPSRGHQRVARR
From the text: ADAMTS7 Expression, Cell Culture and Preparation of the Secreted Proteins—Full-length mouse Adamts7 1-1857 (Uniprot Q68SA9, WT or E373Q catalytic mutant) with a carboxyl terminal 3xFLAG tag was used to generate custom adenoviruses as previously described. Adeno-CMV-Luciferase (Ad-Luc) from Vector Biolabs was used as a negative control. Human Coronary Artery Smooth Muscle Cells (HCA-SMC) were obtained from Lonza and expanded in Lonza SmGM-2 media in 15 cm tissue culture plates. Twenty-four hours before media collection, near confluent plates were transduced with 50 MOI adenovirus and switched to Lonza Basal SM media with volumes of 20 ml per 15 cm plate. Expression of the Flag tagged ADAMTS7 was confirmed from the media using western blot and detected using the anti-Flag M2-HRP antibody (Sigma, A8592). Collected media was processed by adding protease inhibitors (1 mM EDTA and 1 mM PMSF) and clarified by 500 g×5 min spin at 4 C to pellet cell debris. Cell media supernatants were then passed through a 0.22 um filter and kept chilled. Processed media was then concentrated 50-100× using 3 kDa Centricon Plus-70 filter unit, spun at 3,500 g×60 min at 4 C. Approximately 10% of the processed, concentrated media was set aside for total secretome proteolytic analysis. The remaining 90% of the processed, concentrated media was buffer exchanged into 50 mM HEPES pH 8.0, 150 mM NaCl (2×50 ml) using the 3 kDa Centricon Plus-70 filter unit and concentrated to >2 mg/ml to serve as input for the TAILS experiment. Secretome and TAILS input samples were stored at −80° C.
For the first experiment, referred to as SMC1, 120 ml of media from 6×15 cm dishes was pooled from each condition (Luc, WT, EQ) and processed to produce three separate inputs for the TAILS experiment. Luc, WT and EQ inputs from the SMC1 experiment were each divided into triplicate 400 ug samples to generate technical replicate TAILS data. For the second experiment, referred to as SMC2, media was processed separately in triplicate for each condition (Luc1, Luc2, Luc3, WT1, WT2, WT3, EQ1, EQ2, EQ3) using 60 ml of media from 3×15 cm dishes for each process replicate. Inputs from the SMC2 experiment used process replicates of 300 ug each to generate TAILS data. The third experiment used input from cultured Human umbilical vein endothelial cells (HUVEC) from Lifeline Cell Technology grown in VascuLife Media and transduced in Lifeline Basal EC (+bFGF2 10 ng/ml). The HUVEC experiment used the same strategy as the SMC2 experiment, with 40 ml of media from 2×15 cm dishes for each process replicate and used 200 ug each to generate TAILS data. Inputs for process replicate experiments were restricted to the lowest concentration from the 9 parallel samples for SMC2 or HUVEC.
TMT10 isotopic labeling and negative selection of non-labeled peptides-Sample preparation was performed based on the TAILS protocol from the Overall lab with some modifications. From a single experiment, nine parallel protein samples in 50 mM HEPES pH 8.0, 150 mM NaCl were separately denatured with guanidinium chloride (Sigma, G4505) to reach a final concentration of 2.5M guanidinium chloride and 250 mM HEPES and incubated at 65° C. for 15 min. Reduction was achieved through addition of tris(2-carboxylethyl) phosphine (TCEP) at a final concentration of […] and incubated at 65° C. for 45 min. Alkylation reaction was performed with addition of iodoacetamide (IAA, Sigma, A3221) to a final concentration of 10 mM IAA for 15 min at room temperature in the dark. Following denaturation, reduction and alkylation steps, ten percent of each of the nine parallel protein samples was removed and combined to serve as a pooled reference. Isobaric tags were added to free amine groups using the TMT10plex Isobaric Mass Tagging Kit (ThermoFisher, 90113) with TMT channels randomly assigned to the nine samples and TMT 131 assigned to the pooled reference. […]

logFC.mWT.over.Luc	Substance
1.56	LOXL1_219 (VASAGVIYPYQPR; listed as Homo sapiens)
3.27	LOXL2_37 (FQQPAPEYHQPQAPANVAKIQLR; listed as Homo sapiens)
1.74	LOXL2_38 ([code q]QPAPEYHQPQAPANVAKIQLR; not fully specified; listed as Homo sapiens)
6.60	LTBP1_393 (LTATNFR; listed as Homo sapiens)
1.82	LTBP1_540 (HQQVIPHVYPVAAKTQLGR; listed as Homo sapiens)

same assay, conditions: SMC2_TAILS HC; log fold change, mWT over Luc

logFC.mWT.over.Luc	Substance
3.21	AEBP1_37 (FLEGFLSELEPEPR; listed as Homo sapiens)
2.08	CCDC80_66 (LEEPNLQPLQR; listed as Homo sapiens)
2.81	EFEMP1_124 (AVAGPEMQTGR; listed as Homo sapiens)
1.43	EFEMP1_125 (VAGPEMQTGR; listed as Homo sapiens)
1.61	FBLN2_259 (ALGPPAPVQAKAR; listed as Homo sapiens)
1.98	FBLN2_260 (LGPPAPVQAKAR; listed as Homo sapiens)
3.33	FBN1_29 (LEAGNVKETR; listed as Homo sapiens)
4.64	FBN1_53 (LKGPNVCGSR; listed as Homo sapiens)
4.37	FLNA_1285 (LTQTGGPHVKAR; listed as Homo sapiens)
3.59	FN1_36 (MVQPQSPVAVSQSKPGCYDNGKHYQINQQWER; listed as Homo sapiens)
2.60	FN1_40 (QSPVAVSQSKPGCYDNGKHYQINQQWER; listed as Homo sapiens)
2.31	FN1_1143 (LTPGVEYVYTIQVLR; listed as Homo sapiens)
1.20	FN1_1656 (SSSPVTGYR; listed as Homo sapiens)
1.91	GSN_413 (HIANVER; listed as Homo sapiens)
1.74	HSPG2_275 (LLPGSVR; listed as Homo sapiens)
1.72	HSPG2_2331 (ANLAYPAGSTQPIR; listed as Homo sapiens)
1.19	HSPG2_2333 (LAYPAGSTQPIR; listed as Homo sapiens)
2.12	IGFBP3_31 (SAGLGPVVR; listed as Homo sapiens)
4.68	IGFBP3_32 (AGLGPVVR; listed as Homo sapiens)
2.53	IGFBP7_101 (AAGGPGVSGVCVCKSR; listed as Homo sapiens)
1.68	LOX_58 (LSLGSQYQPQR; listed as Homo sapiens)
1.37	LOX_123 (HWFQAGYSTSR; listed as Homo sapiens)
3.35	LOX_124 (WFQAGYSTSR; listed as Homo sapiens)
2.77	LOX_126 (QAGYSTSR; listed as Homo sapiens)
